Assay results published in the domain aggregation screens of Martell et al. (2025).

Test: soluble fraction after stress (log2 fold change); higher = more stays soluble; pooled small domains, quantitative proteomics
Settings: stress: pH 4
Summary of the method: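 With high-throughput quantitative proteomics, pooled custom libraries of small protein domains were measured after pH 4 stress. Each domain's soluble amount after the stress gives a fold change taken as aggregation propensity. Higher log2 values mean more of the domain stayed soluble.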

Row | Sequence | soluble fraction (log2)
1 | HMTAEVIYVDVGGEVNQPSVVELTDGSRVTDAIAAAGGLTEKADLTDINRAAFVSDGEKIFIPSQEE | -0.385
2 | HMTAFAGLTPRERDLLELIAQGRDNAQIAATLGVSDKTVRNHITHIFAKLEVETRAQAIVLARNAGFGRA | -0.0568
3 | HMTAGYFTRGSHQDEVLRIQGTPSGVNKYSDHEVWNYGLSSVDISLRDRRVTEWNNISGNLKV | -0.35
4 | HMTAKRELILRVFMDSNGKLLSIDDVFMEMRKKRSHRTSKMTVKRAIDLLVDLGLLKEVLFDDDNIKYEYV | -0.105
5 | HMTALISGNKAMQMLELSRHSFEKIVKDGLLSIVHEGDKKYYEIGEVEAFMGSDTYKELVNGV | -0.314
6 | HMTALSIGTVVRFTGDRHYISSTGDTGYPASPGLAKITSINPGSKHPYHLIHIDNTSNVYGWVNKQDIIT | ≥ 0.43
7 | HMTAQLSITLNGETRRAAAGSIADLVRSLELDPAKVAVERNGLIVPRSTLAEVALGDGDVLEIVHFV | -0.4
8 | HMTASTLSYSKFNEQVVQNQVRKVTFQGEQVKGELISGQTFTTTVPANDTTLWPMLKAHNVDTAVTAA | 0.0376
9 | HMTASVTDAMFELIDELPKLGKTSFRQLTADLVDRLQVVVTFLAVLELYKQGHVELDQSERFGDITVVWTG | -1.11
10 | HMTATIEEVNELTQSARVNINVPYAAKDEAKAYGAKWDDVERTWYTTGENYAQNKDFFDGFNPTAS | -0.132
11 | HMTATWLTYYRIKAGLTQKRLAELAGLNIRQVQKIENGETLAGNTTAKNLLALADALGIDPHKL | -0.381
12 | HMTAYENSIPLNWVIQKGDAKGLPLSANTARLLIDIVGIDLMDLDHELEKISLYLSGESITEEMIKEHIRG | -1.01
13 | HMTDAELDLLTPREQEVLQLIARGYLYKEIARRLGISVKTVEAHASSVLRKLQLSTRHELSHWAAQRH | -0.192
14 | HMTDAYEVLDLNREASDEEIKKRYRELIREHHPDTLIAKGVPQEFVDLANDKMAAINAAYDRIEKDRGL | -0.0939
15 | HMTDEEKENLREKMLEAGFPLLKQYGMTHTSVAKITQAAGIAVGTFYSFWKNKEAYMADLIGYHRR | 0.105
16 | HMTDITSAITRLNKYNKSGTPLTIDSVTPEALQTLQAKVSSAFEIGAVNQQTYDDVTKDIATLQQYLSSA | -0.102
17 | HMTDIVPNLIGKSLKDAIQSVEKSNLKAIFDGHGIVVSQQPRPGSPIPARKIMKVTLSPDYR | 0.135
18 | HMTDKLEEEAKKKAMEDALADEMNISKTIVHDGIRELARIGFLDVISRKGIYVADYTFTGNLETLLAVIRY | -0.0919
19 | HMTDLDDFAARLKTLTDGRASTPRLRDGVMMLSLDVGGLGPDQRDGLIAAIREGGLTVPGVSDVRIVMT | 0.22
20 | HMTDLEDDEKKVYRLIVESGEGIDFDTLSERSGFSATELPSILLFLMMKEMIDELPGKIYRYSE | -0.327
21 | HMTDMYLTYQELRHLGVSQNLISMWKSRKSIDFHMLGGTLYVRYMSIPEQTRSKLALQNVERVYNSRE | 0.0329
22 | HMTDRINIGDVVTIISKDREDSQIVYMRYHKGKLSILGELILNKTKNDTVDFKGRTYDIATIEKS | -0.228
23 | HMTDVHFIDVPVSEGHPWIGLTVKDLNLPPGTLLVFLNHPGEKSTVPNGDTVLREGDVLVLGATAYAG | -1.02
24 | HMTDYKTNLQEFLQQDGEVEIEYKLLAEVGPSHARQFEVDVMMGDRVLGSGVGRNKKAAEQAAAKVALSKL | -0.375
25 | HMTDYVPTIGTKISKDFGSKGYFEGEVVSGPHNVTVEGDNMVVWKVQYEDGDREEMTASEIAHWKA | 0.22
26 | HMTEAIDVPNLVGQNYSDVKSNSSYKFNWDIINVYDSGKPEGEIIKQEPEAGSKKVKENAVITLTVN | -0.0209
27 | HMTEDNDLETIAYDILKERNLNNININVKNGVLNIYGKTETLKEKREIEKILSSLNVSKINNLIKI | ≥ 0.43
28 | HMTEDQDWAIFKQKLKAQTEIDLDLYKEPQMKHRIKNLIQNAGFDSYVQYFDYVYLNQDRLAAFLENLTV | -1.15
